1 molecule from article PMC2822935, “A novel fragment derived from the β chain of human fibrinogen, β43–63, is a potent inhibitor of activated endothelial cells in vitro and in vivo” (British Journal of Cancer, 2010) can be followed below.

In this experiment the target is T1, recombinant human αvβ3 (human, UniProt P06756 31-992; P05106 27-718).
T1 construct: integrin αv, human; integrin β3, human; also called soluble αvβ3; recombinant αvβ3; source: bought: Calbiochem (Merck)
Briefly: ELISA; solid-phase direct binding assay: 96-well plates coated overnight with 10 μg/ml β43–63 or 0.5 μg/ml vitronectin, blocked with 5% BSA in PBS; recombinant αvβ3 incubated 1.5 h; detected with anti-αvβ3 antibody, anti-mouse-HRP and OPD, read at 450 nm; nonspecific binding to plastic subtracted. The settings on record: both partners purified. A general note: An ELISA detects its analyte on a solid surface through an enzyme-linked reagent.

T1 sequence (P06756 31-992, chain 1 of 2): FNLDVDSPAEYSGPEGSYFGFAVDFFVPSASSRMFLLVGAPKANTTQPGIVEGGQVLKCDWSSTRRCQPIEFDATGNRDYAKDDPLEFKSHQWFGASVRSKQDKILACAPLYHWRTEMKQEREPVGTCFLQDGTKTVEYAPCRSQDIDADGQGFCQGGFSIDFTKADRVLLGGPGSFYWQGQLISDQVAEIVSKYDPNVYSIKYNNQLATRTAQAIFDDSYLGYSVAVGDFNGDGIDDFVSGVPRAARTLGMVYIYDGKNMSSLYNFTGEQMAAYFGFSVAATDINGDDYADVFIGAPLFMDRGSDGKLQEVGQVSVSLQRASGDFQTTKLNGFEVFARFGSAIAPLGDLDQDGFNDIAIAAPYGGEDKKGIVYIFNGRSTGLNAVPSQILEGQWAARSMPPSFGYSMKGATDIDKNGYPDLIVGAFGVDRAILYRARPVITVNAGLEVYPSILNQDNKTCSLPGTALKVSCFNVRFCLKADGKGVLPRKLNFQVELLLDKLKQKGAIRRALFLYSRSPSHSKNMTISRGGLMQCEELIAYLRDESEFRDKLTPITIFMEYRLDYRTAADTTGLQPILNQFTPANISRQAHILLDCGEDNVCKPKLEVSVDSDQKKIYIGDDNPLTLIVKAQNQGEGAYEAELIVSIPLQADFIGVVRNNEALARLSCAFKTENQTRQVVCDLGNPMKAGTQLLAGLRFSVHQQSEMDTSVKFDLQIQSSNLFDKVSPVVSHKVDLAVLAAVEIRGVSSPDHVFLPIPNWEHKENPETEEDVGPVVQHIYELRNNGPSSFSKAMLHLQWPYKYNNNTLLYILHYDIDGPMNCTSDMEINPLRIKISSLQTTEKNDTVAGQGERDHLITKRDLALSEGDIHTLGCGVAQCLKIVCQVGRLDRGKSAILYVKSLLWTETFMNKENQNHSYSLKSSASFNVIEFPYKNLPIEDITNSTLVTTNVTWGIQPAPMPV
T1 sequence (P05106 27-718, chain 2 of 2): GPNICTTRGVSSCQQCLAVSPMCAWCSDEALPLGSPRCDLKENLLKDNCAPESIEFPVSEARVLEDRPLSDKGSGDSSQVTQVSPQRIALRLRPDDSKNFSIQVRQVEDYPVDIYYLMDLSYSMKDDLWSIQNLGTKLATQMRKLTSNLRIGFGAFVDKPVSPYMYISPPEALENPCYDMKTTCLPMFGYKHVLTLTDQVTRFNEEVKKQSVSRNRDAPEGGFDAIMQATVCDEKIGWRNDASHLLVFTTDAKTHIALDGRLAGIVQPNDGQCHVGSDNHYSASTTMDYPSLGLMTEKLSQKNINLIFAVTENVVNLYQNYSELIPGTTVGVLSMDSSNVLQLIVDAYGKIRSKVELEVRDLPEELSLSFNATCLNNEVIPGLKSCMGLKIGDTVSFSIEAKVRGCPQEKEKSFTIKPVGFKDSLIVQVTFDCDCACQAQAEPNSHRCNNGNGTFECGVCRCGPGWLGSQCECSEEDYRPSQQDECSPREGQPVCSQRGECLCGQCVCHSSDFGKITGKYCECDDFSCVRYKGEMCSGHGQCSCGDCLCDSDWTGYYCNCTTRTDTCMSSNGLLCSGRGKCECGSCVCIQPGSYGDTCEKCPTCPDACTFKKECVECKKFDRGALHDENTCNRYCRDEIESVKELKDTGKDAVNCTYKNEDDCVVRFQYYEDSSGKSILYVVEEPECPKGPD

B1: β43–63, 20-amino-acid peptide derived from the β chain of human fibrinogen E-fragment (peptide)
peptide: ARPAKAAATQKKVERKAPDA
notes: human fibrinogen β chain, N terminus of the β chain of FgnE, named amino acids 43–63; source: synthetic peptide (GenScript Corporation)
On to B1, for which the binding result is “binds”.
